Experimental data: article PMC3359993
Read-outs that look alike come from different tables or passages of the source.

Tests used:
[1] = target: T1, Ank-H4 of Microplitis demolitor bracovirus, full length, N-terminal His tag (Microplitis demolitor bracovirus (MdBV)); assay: SPR; Biacore 3000, room temperature; IkB or Ank immobilised on CM5 by amine coupling (about 5500 RU); Rel homodimer as analyte, kinetic titration, five doubling injections (typically 160 nM to 2.56 uM), 60 or 90 s, 30 uL/min; 10 mM HEPES pH 7.4, 150 mM NaCl, 3.4 mM EDTA, 0.005% P20; 1:1 Langmuir …
T1 sequence (Q5I144 whole entry, the tested form may be a part): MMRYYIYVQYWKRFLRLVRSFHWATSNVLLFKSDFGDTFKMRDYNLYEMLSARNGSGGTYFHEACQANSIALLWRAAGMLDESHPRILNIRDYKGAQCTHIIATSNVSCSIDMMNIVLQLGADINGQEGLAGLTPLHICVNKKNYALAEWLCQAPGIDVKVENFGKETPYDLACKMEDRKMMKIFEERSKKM

[2] = target: Dorsal, truncated (RHD, NLS and 20 additional C-terminal residues), StrepTagII-tagged (Drosophila melanogaster); assay: SEC; gel filtration of each purified recombinant protein, compared with molecular mass standards
[3] = target: Ank-N5 of Microplitis demolitor bracovirus, full length, N-terminal His tag (Microplitis demolitor bracovirus (MdBV)); assay: SPR; Biacore 3000, room temperature; IkB or Ank immobilised on CM5 by amine coupling (about 5500 RU); Rel homodimer as analyte, kinetic titration, five doubling injections (typically 160 nM to 2.56 uM), 60 or 90 s, 30 uL/min; 10 mM HEPES pH 7.4, 150 mM NaCl, 3.4 mM EDTA, 0.005% P20; 1:1 Langmuir …
Chain of Ank-N5 of Microplitis demolitor bracovirus, full length, N-terminal His tag (Microplitis demolitor bracovirus (MdBV)) (Q5I126 whole entry, the tested form may be a part): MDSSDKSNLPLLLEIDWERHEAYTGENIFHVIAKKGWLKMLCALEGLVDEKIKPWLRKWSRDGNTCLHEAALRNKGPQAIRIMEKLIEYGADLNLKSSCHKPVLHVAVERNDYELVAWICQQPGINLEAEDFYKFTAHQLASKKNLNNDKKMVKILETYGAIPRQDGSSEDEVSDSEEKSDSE

[4] = target: T2, Rel-49, the C-terminal IkB domain of Relish, N-terminal StrepTagII and C-terminal His tag (Drosophila melanogaster); assay: as above
T2 sequence (Q94527 whole entry, looked up): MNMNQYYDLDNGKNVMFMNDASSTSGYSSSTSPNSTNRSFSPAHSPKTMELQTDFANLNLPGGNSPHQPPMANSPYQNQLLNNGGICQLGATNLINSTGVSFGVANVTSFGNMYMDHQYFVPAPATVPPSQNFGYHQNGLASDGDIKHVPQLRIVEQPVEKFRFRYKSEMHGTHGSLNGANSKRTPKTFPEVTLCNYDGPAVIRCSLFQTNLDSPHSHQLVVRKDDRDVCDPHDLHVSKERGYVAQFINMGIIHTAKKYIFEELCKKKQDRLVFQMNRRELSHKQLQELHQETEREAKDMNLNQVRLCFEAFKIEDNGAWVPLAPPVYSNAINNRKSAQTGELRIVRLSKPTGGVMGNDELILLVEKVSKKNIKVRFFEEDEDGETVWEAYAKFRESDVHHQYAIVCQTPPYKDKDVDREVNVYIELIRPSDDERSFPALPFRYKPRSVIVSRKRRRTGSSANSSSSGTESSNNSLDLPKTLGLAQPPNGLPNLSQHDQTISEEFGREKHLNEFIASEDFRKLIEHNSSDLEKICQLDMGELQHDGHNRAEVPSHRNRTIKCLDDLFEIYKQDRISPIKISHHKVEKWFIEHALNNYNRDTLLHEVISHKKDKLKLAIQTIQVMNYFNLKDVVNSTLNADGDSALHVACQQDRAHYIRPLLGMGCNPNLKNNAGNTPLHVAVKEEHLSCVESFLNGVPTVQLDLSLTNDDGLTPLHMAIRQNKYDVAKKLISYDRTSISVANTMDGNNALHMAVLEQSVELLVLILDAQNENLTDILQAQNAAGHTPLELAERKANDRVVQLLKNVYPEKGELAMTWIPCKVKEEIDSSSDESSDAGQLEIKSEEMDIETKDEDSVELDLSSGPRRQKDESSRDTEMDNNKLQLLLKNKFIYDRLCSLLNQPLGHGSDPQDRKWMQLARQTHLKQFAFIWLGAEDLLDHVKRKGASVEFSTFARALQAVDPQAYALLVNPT

[5] = target: T1, Ank-H4 of Microplitis demolitor …; assay: as above; remark: listed apart in the source
[6] = target: Dorsal, truncated (RHD, NLS and 20 additional C-terminal residues), N-terminal thioredoxin fusion (Drosophila melanogaster); assay: SEC; gel filtration of each purified recombinant protein, compared with molecular mass standards
[7] = target: Relish, truncated (RHD, NLS and 20 additional C-terminal residues), StrepTagII-tagged (Drosophila melanogaster); assay: as above
[8] = target: Relish, truncated (RHD, NLS and 20 additional C-terminal residues), N-terminal thioredoxin fusion (Drosophila melanogaster); assay: as above

Binder | Kd [1] | stoichiometry N [2] | Kd [3] | koff [3] | kon [3] | Kd [4] | koff [4] | kon [4] | Kd [5] | koff [5] | kon [5] | stoichiometry N [6] | stoichiometry N [7] | stoichiometry N [8]
Dorsal, truncated (RHD, NLS and 20 additional C-terminal residues), StrepTagII-tagged (domain or fragment, modifications not checked) PYVKITEQPAGKALRFRYECEGRSAGSIPGVNSTPENKTYPTIEIVGYKGRAVVVVSCVTKDTPYRPHPHNLVGKEGCKKGVCTLEINSETMRAVFSNLGIQCVKKKDIEAALKAREEIRVDPFKTGFSHRFQPSSIDLNSVRLCFQVFMESEQKGRFTSPLPPVVSEPIFDKKAMSDLVICRLCSCSATVFGNTQIILLCEKVAKEDISVRFFEEKNGQSVWEAFGDFQHTDVHKQTAITFKTPRYHTLDITEPAKVFIQLRRPSDGVTSEALPFEYVPMDSDPAHLRRKRQKTGGDPMHLLLQQQQKQQLQN | 858000 nM | 2 | 416 nM | 0.003 s⁻¹ | 7230 M⁻¹ s⁻¹ | 783 nM | 0.00645 s⁻¹ | 8240 M⁻¹ s⁻¹ | 858 nM | 0.0067 s⁻¹ | 7810 M⁻¹ s⁻¹ |  |  | 
Dorsal, truncated (RHD, NLS and 20 additional C-terminal residues), N-terminal thioredoxin fusion (domain or fragment, modifications not checked) PYVKITEQPAGKALRFRYECEGRSAGSIPGVNSTPENKTYPTIEIVGYKGRAVVVVSCVTKDTPYRPHPHNLVGKEGCKKGVCTLEINSETMRAVFSNLGIQCVKKKDIEAALKAREEIRVDPFKTGFSHRFQPSSIDLNSVRLCFQVFMESEQKGRFTSPLPPVVSEPIFDKKAMSDLVICRLCSCSATVFGNTQIILLCEKVAKEDISVRFFEEKNGQSVWEAFGDFQHTDVHKQTAITFKTPRYHTLDITEPAKVFIQLRRPSDGVTSEALPFEYVPMDSDPAHLRRKRQKTGGDPMHLLLQQQQKQQLQN |  |  |  |  |  |  |  |  |  |  |  | 2 |  | 
Relish, truncated (RHD, NLS and 20 additional C-terminal residues), StrepTagII-tagged (domain or fragment, modifications not checked) KHVPQLRIVEQPVEKFRFRYKSEMHGTHGSLNGANSKRTPKTFPEVTLCNYDGPAVIRCSLFQTNLDSPHSHQLVVRKDDRDVCDPHDLHVSKERGYVAQFINMGIIHTAKKYIFEELCKKKQDRLVFQMNRRELSHKQLQELHQETEREAKDMNLNQVRLCFEAFKIEDNGAWVPLAPPVYSNAINNRKSAQTGELRIVRLSKPTGGVMGNDELILLVEKVSKKNIKVRFFEEDEDGETVWEAYAKFRESDVHHQYAIVCQTPPYKDKDVDREVNVYIELIRPSDDERSFPALPFRYKPRSVIVSRKRRRTGSSANSSSSGTESSNNSLD |  |  | 30300 nM | 0.00179 s⁻¹ | 59 M⁻¹ s⁻¹ | 2750 nM | 0.00378 s⁻¹ | 1380 M⁻¹ s⁻¹ | 345 nM | 0.0067 s⁻¹ | 19400 M⁻¹ s⁻¹ |  | 2 | 
Relish, truncated (RHD, NLS and 20 additional C-terminal residues), N-terminal thioredoxin fusion (domain or fragment, modifications not checked) KHVPQLRIVEQPVEKFRFRYKSEMHGTHGSLNGANSKRTPKTFPEVTLCNYDGPAVIRCSLFQTNLDSPHSHQLVVRKDDRDVCDPHDLHVSKERGYVAQFINMGIIHTAKKYIFEELCKKKQDRLVFQMNRRELSHKQLQELHQETEREAKDMNLNQVRLCFEAFKIEDNGAWVPLAPPVYSNAINNRKSAQTGELRIVRLSKPTGGVMGNDELILLVEKVSKKNIKVRFFEEDEDGETVWEAYAKFRESDVHHQYAIVCQTPPYKDKDVDREVNVYIELIRPSDDERSFPALPFRYKPRSVIVSRKRRRTGSSANSSSSGTESSNNSLD |  |  |  |  |  |  |  |  |  |  |  |  |  | 2
